To fix the notation:
T1: cynomolgus monkey IL-33 (cys mut) (cynomolgus monkey)
T1 chain: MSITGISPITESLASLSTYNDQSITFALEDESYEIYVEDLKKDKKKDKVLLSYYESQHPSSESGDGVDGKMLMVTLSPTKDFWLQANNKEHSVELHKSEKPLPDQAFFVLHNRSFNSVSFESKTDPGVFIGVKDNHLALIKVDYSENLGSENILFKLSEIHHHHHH

T2: human IL-33 (mm2) (human, UniProt O95760 112-270)
T2 construct: Variant in which all four cysteine residues are serine; the entry carries an N-terminal Met and a C-terminal His6; Biotinylated in some assays; also called hIL-33 (mm2); huIL-33 (mm2)
T2 chain: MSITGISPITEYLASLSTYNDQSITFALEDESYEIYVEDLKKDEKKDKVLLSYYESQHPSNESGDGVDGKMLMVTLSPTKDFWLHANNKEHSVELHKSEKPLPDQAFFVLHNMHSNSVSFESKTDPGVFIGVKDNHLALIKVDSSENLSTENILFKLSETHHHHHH

T3: native human IL-33 from human lung fibroblast (HFL-1) lysate (human, UniProt O95760 1-270, limits assumed)
T3 sequence (looked up): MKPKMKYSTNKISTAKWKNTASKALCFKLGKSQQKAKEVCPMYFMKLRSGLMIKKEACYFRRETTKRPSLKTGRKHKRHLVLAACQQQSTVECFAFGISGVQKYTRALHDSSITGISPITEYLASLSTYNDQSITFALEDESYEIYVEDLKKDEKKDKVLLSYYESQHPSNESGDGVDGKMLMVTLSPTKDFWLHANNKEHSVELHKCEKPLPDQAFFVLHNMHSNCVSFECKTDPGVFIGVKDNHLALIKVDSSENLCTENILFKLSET

B1: 14D8 chimera/hu J (antibody, human IgG1, kappa, V domains shown)
VH: EVQLVDSGGDQVQPGRSLKLSCVASGFIFKNYWMTWIRQVPGKGLEWIASITNSGGNTYYPDSVKGRFTISRDNAKDTLYLQMNSLRSEDTATYYCARDRRYNSGSPFAYWGQGTLVTVSS
VL: DIQLTQSPSTLPASLGERVTISCRTSQSINNNLCWYQQKPDGTVKRLIYSTSTLESGVPSRFSGSGSGTDYSLSISSLESQDFAMYYCLQYATYPWTFGQGTKVEIKR
notes: also called 14D8 huJseg
B2: 12F9 chimera (antibody, human IgG1, kappa, V domains shown)
VH: B1 VH with D6E, Q11L, A24T, I48V, S54T, N57A, A75S, K76E, D77N
VL: DIQLTQSPSTLAASLGERVTISCRASQSISNSLIWFQQKPDGTIKRLIYSSSTLESGVPSRFSGSGSGTDYSLSISSLESEDFAMYYCLQYATYPWTFGGGTKLELRR
notes: also called chimeric 12F9
B3: 30B11 chimera/hu J (antibody, human IgG1, kappa, V domains shown)
VH: QVKLLQSGAALVKPGASVKMSCATSGFSFTDYWVSWVKQSHGKGLEWIGEIYPNSGADNFNENFKGKATLTVDKSTSTAYMELSRLTSEDSAIYYCTRGPYYYSTQIIFAYWGQGTLVTVSS
VL: NIVMTQSPKSMSISVGDRVTMNCKASQNVGNNLAWYQQKPGQSPKLLIYYASNRYTGVPDRFTGGGYGTDFTLTINSVQAEDAAFYYCQRIYNSPPTFGGGTKVEIKR
notes: also called 30B11 hu Jseg
B4: 9B3 chimera (antibody, human IgG1, kappa)
heavy: EVQLVETGGGLVQPGRSLKLSCVASGFTFSNYWMYWIRQAPGMGLEWVSSINNDGGNTYYLDSVKGRFTISRNNAENTVYLQMNSLRSEDTATYYCAKGHYSYSSYSFSYWGQGTLVTVSSASTKGPSVFPLAPSSKSTSGGTAALGCLVKDYFPEPVTVSWNSGALTSGVHTFPAVLQSSGLYSLSSVVTVPSSSLGTQTYICNVNHKPSNTKVDKKVEPKSCDKTHTCPPCPAPEAAGAPSVFLFPPKPKDTLMISRTPEVTCVVVDVSHEDPEVKFNWYVDGVEVHNAKTKPREEQYNSTYRVVSVLTVLHQDWLNGKEYKCKVSNKALPAPIEKTISKAKGQPREPQVYTLPPSREEMTKNQVSLTCLVKGFYPSDIAVEWESNGQPENNYKTTPPVLDSDGSFFLYSKLTVDKSRWQQGNVFSCSVMHEALHNHYTQKSLSLSPGK
light: DIQMTQSPSVLSASVGDRVTLSCKASHNINKHLDWCQQKVGEAPKLLIYFTNNLQTGIPSRFSGSGSGTDYTLTISSLQPEDVATYFCFQYNSGWTFGGGTKLELKRTVAAPSVFIFPPSDEQLKSGTASVVCLLNNFYPREAKVQWKVDNALQSGNSQESVTEQDSKDSTYSLSSTLTLSKADYEKHKVYACEVTHQGLSSPVTKSFNRGEC
notes: also called chimeric 9B3
B5: 30A1 chimera/hu J (antibody, human IgG1, kappa)
heavy: QVNLLQSGATLVKPGASMKMSCKASGYSFTDYWVSWVKQSHGKSLEWIGEIYPNSGANNFNKEFKDKATLTVDKSTSTAYMELTRLTSEDSAVYYCTRGPYYYSSQIIFAYWGQGTLVTVSSASTKGPSVFPLAPSSKSTSGGTAALGCLVKDYFPEPVTVSWNSGALTSGVHTFPAVLQSSGLYSLSSVVTVPSSSLGTQTYICNVNHKPSNTKVDKKVEPKSCDKTHTCPPCPAPEAAGAPSVFLFPPKPKDTLMISRTPEVTCVVVDVSHEDPEVKFNWYVDGVEVHNAKTKPREEQYNSTYRVVSVLTVLHQDWLNGKEYKCKVSNKALPAPIEKTISKAKGQPREPQVYTLPPSREEMTKNQVSLTCLVKGFYPSDIAVEWESNGQPENNYKTTPPVLDSDGSFFLYSKLTVDKSRWQQGNVFSCSVMHEALHNHYTQKSLSLSPGK
light: IIVMTQSPKSMSISVGDRVTMNCKASQNVGNNIAWYRQKPGQSPELLIYYASNRYTGVPDRFTGGGYGTDFTLTINSVQAEDAAFYYCQRIYNSPPTFGGGTKVEIKRTVAAPSVFIFPPSDEQLKSGTASVVCLLNNFYPREAKVQWKVDNALQSGNSQESVTEQDSKDSTYSLSSTLTLSKADYEKHKVYACEVTHQGLSSPVTKSFNRGEC
notes: also called 30A1 hu Jseg
B6: IL33-11 (antibody, human IgG1, kappa, V domains shown)
VH: EVQLVESGGGLVQPGGSLRLSCAASGFTFSNYWMYWVRQAPGKGLEWVASITPNGGNTYYPDSVKGRFTISRDNAKNSLYLQMNSLRAEDTAVYYCARGHYYYTSYSLGYWGQGTLVTVSS
VL: DIQMTQSPSSLSASVGDRVTITCKASQNINKHLDWYQQKPGKAPKLLIYFTNNLQTGVPSRFSGSGSGTDFTLTISSLQPEDFATYYCFQYNNGWTFGGGTKVEIKR
B7: IL33-13 (antibody, human IgG1, kappa, V domains shown)
VH: B6 VH with N31S, Y102S, T104S, L108F, G109S
VL: B6 VL
B8: 9B3 chimera/hu J (antibody, human IgG1, kappa)
heavy: B4 heavy
light: B4 light with G99Q, L103V, L105I
notes: also called 9B3 chimera huJseg

Residue numbers refer to the chain shown, from its start.

The target of the first experiment is T1, cynomolgus monkey IL-33 (cys mut). Nature of the experiment: cell-based or functional assay.
Regarding B1, the “% inhibition at 20 nM, HEK293 ST2 NFkB” value came to 11%.

For the molecule B2, the “% inhibition at 20 nM, HEK293 ST2 NFkB” value was 3.6%.

B3: the “IC50, HEK293 ST2 NFkB” value came out at 0.11 nM.

With B4, the “% inhibition at 20 nM, HEK293 ST2 NFkB” value was determined as 35%.

A further experiment shares this target. Nature of the experiment: SPR, IgG captured by anti-human Fc, IL-33 in solution. How it is done:
(§1) Binding to human and cynomolgus monkey IL-33 was measured by surface plasmon resonance using a BIAcore T200 instrument. An anti-human Fc antibody was immobilized on a CM5 chip, and anti-IL-33 antibodies were captured.
In general terms: Surface plasmon resonance follows binding to a sensor surface in real time, without labels.
Regarding B1, the binding result was “no binding (tested: 125 nM)”.

Consider B2, for which the binding result is on record as “no binding (tested: 125 nM)”.

As to B3, the Kd was 0.148 nM.

Regarding B5, the Kd was 0.197 nM.

B4 displayed a Kd of 0.836 nM.

Another experiment has as its target T2, human IL-33 (mm2). Described as above. Here is the method: as §1
Regarding B1, the Kd came out at 0.394 nM.

The molecule B2 gave a Kd of 0.408 nM.

For B3, the Kd worked out at 0.367 nM.

In turn, B5 registered a Kd of 0.54 nM.

B4 showed a Kd of 0.457 nM.

The target in the next experiment is T1, cynomolgus monkey IL-33 (cys mut). Nature of the experiment: cell-based or functional assay. This is another data set of the same source.
Take B6: the “IC50, HEK293 ST2 NFkB” value is 0.204 nM.

In the case of B7, the “IC50, HEK293 ST2 NFkB” value was determined as 7.65 nM.

The target in the next experiment is T2, human IL-33 (mm2). Nature of the experiment: cell-based or functional assay.
B6: the “IC50, HEK293 ST2 NFkB” value was 0.09 nM.

On to B7, for which the “IC50, HEK293 ST2 NFkB” value stood at 0.22 nM.

As to B8, the “IC50, HEK293 ST2 NFkB” value was 0.264 nM.

In another experiment the target is T2, human IL-33 (mm2). Nature of the experiment: BIAcore, IgG captured by anti-human Fc, 125 nM IL-33 (mm2). Here is the method: as §1
On to B8, for which the koff was 0.000451 s⁻¹.

The target in another experiment is T2, human IL-33 (mm2). Nature of the experiment: cell-based or functional assay. This is another data set of the same source.
Regarding B1, the “IC50, HEK293 ST2 NFkB” value turned out to be 2.03 nM.

B2: the “IC50, HEK293 ST2 NFkB” value is 2.71 nM.

As to B3, the “IC50, HEK293 ST2 NFkB” value is 0.028 nM.

For the molecule B8, the “IC50, HEK293 ST2 NFkB” value stood at 0.056 nM.

The next experiment concerns the target T2, human IL-33 (mm2). Nature of the experiment: cell-based or functional assay. The source holds these as a separate data set.
In the case of B8, the “estimated IC50, HEK293 ST2 NFkB” value is 0.061 nM.

In a further experiment the target is T3, native human IL-33 from human lung …. Nature of the experiment: cell-based or functional assay.
Consider B1, for which the “% inhibition 0.1 nM Ab, HEK293 ST2 NFkB” value is 61.1%; the “% inhibition 1 nM Ab, HEK293 ST2 NFkB” value came to 99.6%; the “% inhibition 10 nM Ab, HEK293 ST2 NFkB” value is 107%.

On to B2, for which the “% inhibition 0.1 nM Ab, HEK293 ST2 NFkB” value turned out to be 44.3%; the “% inhibition 1 nM Ab, HEK293 ST2 NFkB” value worked out at 82.6%; the “% inhibition 10 nM Ab, HEK293 ST2 NFkB” value was 104%.

On to B3, for which the “% inhibition 0.1 nM Ab, HEK293 ST2 NFkB” value was found to be 102%; the “% inhibition 1 nM Ab, HEK293 ST2 NFkB” value was 109%; the “% inhibition 10 nM Ab, HEK293 ST2 NFkB” value was 110%.

As to B5, the “% inhibition 0.1 nM Ab, HEK293 ST2 NFkB” value turned out to be 63.8%; the “% inhibition 1 nM Ab, HEK293 ST2 NFkB” value was determined as 98.5%; the “% inhibition 10 nM Ab, HEK293 ST2 NFkB” value was 107%.

In the case of B4, the “% inhibition 0.1 nM Ab, HEK293 ST2 NFkB” value turned out to be 52.5%; the “% inhibition 1 nM Ab, HEK293 ST2 NFkB” value was 96%; the “% inhibition 10 nM Ab, HEK293 ST2 NFkB” value was 111%.

In general, % inhibition refers to the change of the read-out against control, counted positive when it falls. By Kd is commonly meant the free concentration of one partner at which half of the binding sites on the other are occupied at equilibrium, for simple one-to-one binding. The koff is the first-order rate constant of dissociation.

The values are drawn from patent US20180037644A1 (Pfizer, published 2018).
